# According to PMC11467389:
# Assays:
# [1] = CHX chase of Flag-PDK1, Western blot (half-life); conditions: glycan lost; control: rhWnt3a alone
# [2] = MG132 6 h, Flag IP, ubiquitin blot; conditions: glycan lost; control: Flag-PDK1 WT
# [3] = CHX chase, anti-Flag Western blot (half-life); conditions: glycan lost; control: Flag-PDK1 WT
# [4] = Western blot of endogenous PDK1 in ST2 cells; conditions: glycan lost; control: rhWnt3a alone
substance,measurement,setting,value
PDK1 (pyruvate dehydrogenase kinase 1): OSMI,degradation_or_half_life,[1],decreases
PDK1 (pyruvate dehydrogenase kinase 1): S174A,other: ubiquitination,[2],increases
same,degradation_or_half_life,[3],decreases
PDK1 (pyruvate dehydrogenase kinase 1): DON,expression_or_secretion,[4],decreases
